Test results taken from article PMC10286367.

Assays:
[1] = WB, cultured astrocytes; settings: glycan lost; control: Ctrl astrocytes
[2] = WB of total p65, cultured astrocytes; settings: glycan lost; control: Ctrl astrocytes
[3] = WB of cytoplasmic and nuclear fractions; settings: glycan lost; control: Ctrl astrocytes
[4] = IP-WB in N2a cells; settings: glycan lost; control: wild-type p65-HA
[5] = HA IP-WB in N2a cells

B1: NF-κB p65: Ogt cKO (protein)
parent chain: MDDLFPLIFPSEPAQASGPYVEIIEQPKQRGMRFRYKCEGRSAGSIPGERSTDTTKTHPTIKINGYTGPGTVRISLVTKDPPHRPHPHELVGKDCRDGYYEADLCPDRSIHSFQNLGIQCVKKRDLEQAISQRIQTNNNPFHVPIEEQRGDYDLNAVRLCFQVTVRDPAGRPLLLTPVLSHPIFDNRAPNTAELKICRVNRNSGSCLGGDEIFLLCDKVQKEDIEVYFTGPGWEARGSFSQADVHRQVAIVFRTPPYADPSLQAPVRVSMQLRRPSDRELSEPMEFQYLPDTDDRHRIEEKRKRTYETFKSIMKKSPFNGPTEPRPPTRRIAVPTRNSTSVPKPAPQPYTFPASLSTINFDEFSPMLLPSGQISNQALALAPSSAPVLAQTMVPSSAMVPLAQPPAPAPVLTPGPPQSLSAPVPKSTQAGEGTLSEALLHLQFDADEDLGALLGNSTDPGVFTDLASVDNSEFQQLLNQGVSMSHSTAEPMLMEYPEAITRLVTGSQRPPDPAPTPLGTSGLPNGLSGDEDFSSIADMDFSALLSQISS
In the case of B1, the “other: p65 phosphorylation (p-p65 level)” value [1] is reported as “increases”, the expression_or_secretion [2] is reported as “no change” and the localisation_or_trafficking [3] is reported as “changes”.

B2: NF-κB p65: S384A (protein)
parent chain: MDDLFPLIFPSEPAQASGPYVEIIEQPKQRGMRFRYKCEGRSAGSIPGERSTDTTKTHPTIKINGYTGPGTVRISLVTKDPPHRPHPHELVGKDCRDGYYEADLCPDRSIHSFQNLGIQCVKKRDLEQAISQRIQTNNNPFHVPIEEQRGDYDLNAVRLCFQVTVRDPAGRPLLLTPVLSHPIFDNRAPNTAELKICRVNRNSGSCLGGDEIFLLCDKVQKEDIEVYFTGPGWEARGSFSQADVHRQVAIVFRTPPYADPSLQAPVRVSMQLRRPSDRELSEPMEFQYLPDTDDRHRIEEKRKRTYETFKSIMKKSPFNGPTEPRPPTRRIAVPTRNSTSVPKPAPQPYTFPASLSTINFDEFSPMLLPSGQISNQALALAPSSAPVLAQTMVPSSAMVPLAQPPAPAPVLTPGPPQSLSAPVPKSTQAGEGTLSEALLHLQFDADEDLGALLGNSTDPGVFTDLASVDNSEFQQLLNQGVSMSHSTAEPMLMEYPEAITRLVTGSQRPPDPAPTPLGTSGLPNGLSGDEDFSSIADMDFSALLSQISS
With B2 the “other: p65 phosphorylation (p-p65 level)” value [4] was “increases”.

B3: NF-κB p65: S370A (protein)
parent chain: MDDLFPLIFPSEPAQASGPYVEIIEQPKQRGMRFRYKCEGRSAGSIPGERSTDTTKTHPTIKINGYTGPGTVRISLVTKDPPHRPHPHELVGKDCRDGYYEADLCPDRSIHSFQNLGIQCVKKRDLEQAISQRIQTNNNPFHVPIEEQRGDYDLNAVRLCFQVTVRDPAGRPLLLTPVLSHPIFDNRAPNTAELKICRVNRNSGSCLGGDEIFLLCDKVQKEDIEVYFTGPGWEARGSFSQADVHRQVAIVFRTPPYADPSLQAPVRVSMQLRRPSDRELSEPMEFQYLPDTDDRHRIEEKRKRTYETFKSIMKKSPFNGPTEPRPPTRRIAVPTRNSTSVPKPAPQPYTFPASLSTINFDEFSPMLLPSGQISNQALALAPSSAPVLAQTMVPSSAMVPLAQPPAPAPVLTPGPPQSLSAPVPKSTQAGEGTLSEALLHLQFDADEDLGALLGNSTDPGVFTDLASVDNSEFQQLLNQGVSMSHSTAEPMLMEYPEAITRLVTGSQRPPDPAPTPLGTSGLPNGLSGDEDFSSIADMDFSALLSQISS
With B3 the “other: p65 phosphorylation (p-p65 level)” value [4] was “no change”.

B4: NF-κB p65: Ogt KD (protein)
parent chain: MDDLFPLIFPSEPAQASGPYVEIIEQPKQRGMRFRYKCEGRSAGSIPGERSTDTTKTHPTIKINGYTGPGTVRISLVTKDPPHRPHPHELVGKDCRDGYYEADLCPDRSIHSFQNLGIQCVKKRDLEQAISQRIQTNNNPFHVPIEEQRGDYDLNAVRLCFQVTVRDPAGRPLLLTPVLSHPIFDNRAPNTAELKICRVNRNSGSCLGGDEIFLLCDKVQKEDIEVYFTGPGWEARGSFSQADVHRQVAIVFRTPPYADPSLQAPVRVSMQLRRPSDRELSEPMEFQYLPDTDDRHRIEEKRKRTYETFKSIMKKSPFNGPTEPRPPTRRIAVPTRNSTSVPKPAPQPYTFPASLSTINFDEFSPMLLPSGQISNQALALAPSSAPVLAQTMVPSSAMVPLAQPPAPAPVLTPGPPQSLSAPVPKSTQAGEGTLSEALLHLQFDADEDLGALLGNSTDPGVFTDLASVDNSEFQQLLNQGVSMSHSTAEPMLMEYPEAITRLVTGSQRPPDPAPTPLGTSGLPNGLSGDEDFSSIADMDFSALLSQISS
For B4, the “other: p65 phosphorylation (p-p65 level)” value ([5]; glycan lost, control: control N2a cells) was “increases”.

B5: NF-κB p65: S396A (protein)
parent chain: MDDLFPLIFPSEPAQASGPYVEIIEQPKQRGMRFRYKCEGRSAGSIPGERSTDTTKTHPTIKINGYTGPGTVRISLVTKDPPHRPHPHELVGKDCRDGYYEADLCPDRSIHSFQNLGIQCVKKRDLEQAISQRIQTNNNPFHVPIEEQRGDYDLNAVRLCFQVTVRDPAGRPLLLTPVLSHPIFDNRAPNTAELKICRVNRNSGSCLGGDEIFLLCDKVQKEDIEVYFTGPGWEARGSFSQADVHRQVAIVFRTPPYADPSLQAPVRVSMQLRRPSDRELSEPMEFQYLPDTDDRHRIEEKRKRTYETFKSIMKKSPFNGPTEPRPPTRRIAVPTRNSTSVPKPAPQPYTFPASLSTINFDEFSPMLLPSGQISNQALALAPSSAPVLAQTMVPSSAMVPLAQPPAPAPVLTPGPPQSLSAPVPKSTQAGEGTLSEALLHLQFDADEDLGALLGNSTDPGVFTDLASVDNSEFQQLLNQGVSMSHSTAEPMLMEYPEAITRLVTGSQRPPDPAPTPLGTSGLPNGLSGDEDFSSIADMDFSALLSQISS
For B5, the “other: p65 phosphorylation (p-p65 level)” value [4] was “no change”.

B6: NF-κB p65: S374A (protein)
parent chain: MDDLFPLIFPSEPAQASGPYVEIIEQPKQRGMRFRYKCEGRSAGSIPGERSTDTTKTHPTIKINGYTGPGTVRISLVTKDPPHRPHPHELVGKDCRDGYYEADLCPDRSIHSFQNLGIQCVKKRDLEQAISQRIQTNNNPFHVPIEEQRGDYDLNAVRLCFQVTVRDPAGRPLLLTPVLSHPIFDNRAPNTAELKICRVNRNSGSCLGGDEIFLLCDKVQKEDIEVYFTGPGWEARGSFSQADVHRQVAIVFRTPPYADPSLQAPVRVSMQLRRPSDRELSEPMEFQYLPDTDDRHRIEEKRKRTYETFKSIMKKSPFNGPTEPRPPTRRIAVPTRNSTSVPKPAPQPYTFPASLSTINFDEFSPMLLPSGQISNQALALAPSSAPVLAQTMVPSSAMVPLAQPPAPAPVLTPGPPQSLSAPVPKSTQAGEGTLSEALLHLQFDADEDLGALLGNSTDPGVFTDLASVDNSEFQQLLNQGVSMSHSTAEPMLMEYPEAITRLVTGSQRPPDPAPTPLGTSGLPNGLSGDEDFSSIADMDFSALLSQISS
For B6, the “other: p65 phosphorylation (p-p65 level)” value [4] was “no change”.

B7: NF-κB p65: OE-Ogt (protein)
parent chain: MDDLFPLIFPSEPAQASGPYVEIIEQPKQRGMRFRYKCEGRSAGSIPGERSTDTTKTHPTIKINGYTGPGTVRISLVTKDPPHRPHPHELVGKDCRDGYYEADLCPDRSIHSFQNLGIQCVKKRDLEQAISQRIQTNNNPFHVPIEEQRGDYDLNAVRLCFQVTVRDPAGRPLLLTPVLSHPIFDNRAPNTAELKICRVNRNSGSCLGGDEIFLLCDKVQKEDIEVYFTGPGWEARGSFSQADVHRQVAIVFRTPPYADPSLQAPVRVSMQLRRPSDRELSEPMEFQYLPDTDDRHRIEEKRKRTYETFKSIMKKSPFNGPTEPRPPTRRIAVPTRNSTSVPKPAPQPYTFPASLSTINFDEFSPMLLPSGQISNQALALAPSSAPVLAQTMVPSSAMVPLAQPPAPAPVLTPGPPQSLSAPVPKSTQAGEGTLSEALLHLQFDADEDLGALLGNSTDPGVFTDLASVDNSEFQQLLNQGVSMSHSTAEPMLMEYPEAITRLVTGSQRPPDPAPTPLGTSGLPNGLSGDEDFSSIADMDFSALLSQISS
In the case of B7, the “other: p65 phosphorylation (p-p65 level)” value ([5]; glycan gained, control: N2a cells without ectopic Ogt) is reported as “decreases”.
